Results reported in patent US20240368285A1 (HEFEI TG IMMUNOPHARMA, published 2024).

How the values were obtained:
[1] = target: T1, MICA protein (SPR analyte) (human, UniProt Q29983 24-308, limits assumed); experiment: SPR, Biacore 8K, antibody captured on protein A chip, MICA as analyte
T1 construct: also called major histocompatibility complex class I chain related polypeptide A
T1 sequence: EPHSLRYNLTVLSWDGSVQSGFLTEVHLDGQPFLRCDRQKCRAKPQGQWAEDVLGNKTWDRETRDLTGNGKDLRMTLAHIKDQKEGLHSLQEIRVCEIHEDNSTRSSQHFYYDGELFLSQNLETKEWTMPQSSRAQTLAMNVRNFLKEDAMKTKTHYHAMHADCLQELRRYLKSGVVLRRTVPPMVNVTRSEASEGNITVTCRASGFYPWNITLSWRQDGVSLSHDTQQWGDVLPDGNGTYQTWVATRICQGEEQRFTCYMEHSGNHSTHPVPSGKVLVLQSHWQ
Description: In a Biacore 8K (Cytiva) system, the antibody was diluted to a concentration of 10 µg/mL with running buffer (HBS-EP), and the antibody was conjugated onto a protein A (Cytiva, 29127556) chip at a flow rate of […].
Kinetic and affinity data of binding of the maternal antibody h5A1 and the affinity maturation antibody h5A1002 and MICA were detected.

MICA008α3-Fc = target: T2, MICA008α3-Fc (human); experiment: ELISA on coated MICA*008 α3-Fc (1 µg/ml), HRP anti-human Fab secondary, OD450
T2 construct: also called MICA*008-Fc; domain α3 of MICA-008 Fc fusion protein
T2 sequence (chain, as listed by the source limits assumed): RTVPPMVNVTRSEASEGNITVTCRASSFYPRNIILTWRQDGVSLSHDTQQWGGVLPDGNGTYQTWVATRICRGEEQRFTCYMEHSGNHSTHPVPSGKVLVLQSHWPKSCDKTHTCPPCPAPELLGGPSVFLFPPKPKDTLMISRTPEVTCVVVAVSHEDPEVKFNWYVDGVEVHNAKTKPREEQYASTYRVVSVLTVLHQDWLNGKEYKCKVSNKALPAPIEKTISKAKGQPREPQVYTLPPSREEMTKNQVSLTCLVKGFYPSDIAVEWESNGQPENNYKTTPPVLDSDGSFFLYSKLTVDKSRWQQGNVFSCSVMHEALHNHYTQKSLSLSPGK
Description: (§1) After the antibodies were added, signal intensity was used for judging the binding characteristics of the antibodies and MICA and MICB.
(§2) The fusion proteins (produced in the Applicant's laboratory; an amino acid sequence of MICA002α3-Fc is as set forth in SEQ ID NO: 22; an amino acid sequence of MICA005α3-Fc is as set forth in SEQ ID NO: 24; an amino acid sequence of MICA008α3-Fc is as set forth in SEQ ID NO: 25; an amino acid sequence of MICA004α3-Fc is as set forth in SEQ ID NO: 23; an amino acid sequence of MICB001α3-Fc is as set forth in SEQ ID NO: 26; and an amino acid sequence of MICB005α3-Fc is as set forth in SEQ ID NO: 27) were diluted to a concentration of 1 μg/ml with PBS and then added into a 96-well plate in a volume of 100 μl/well. The plate was placed at 4° C. overnight. The PBS in the 96-well plate was removed by sucking. After the plate was washed with PBST (that is, PBS having a pH value of 7.2 included 0.1 volume % of Tween 20) for 6 times, PBS containing 10% of BSA was added in a volume of 200 μl/well. The plate was incubated at 37° C. for 2 hours for blocking. The blocking solution was removed. […]

MICA002α3-Fc = target: T3, MICA002α3-Fc (human); experiment: ELISA on coated MICA*002 α3-Fc (1 µg/ml), HRP anti-human Fab secondary, OD450
T3 construct: Produced in the Applicant's laboratory; also called MICA*002-Fc; domain α3 of MICA-002 Fc fusion protein
T3 sequence (chain, as listed by the source limits assumed): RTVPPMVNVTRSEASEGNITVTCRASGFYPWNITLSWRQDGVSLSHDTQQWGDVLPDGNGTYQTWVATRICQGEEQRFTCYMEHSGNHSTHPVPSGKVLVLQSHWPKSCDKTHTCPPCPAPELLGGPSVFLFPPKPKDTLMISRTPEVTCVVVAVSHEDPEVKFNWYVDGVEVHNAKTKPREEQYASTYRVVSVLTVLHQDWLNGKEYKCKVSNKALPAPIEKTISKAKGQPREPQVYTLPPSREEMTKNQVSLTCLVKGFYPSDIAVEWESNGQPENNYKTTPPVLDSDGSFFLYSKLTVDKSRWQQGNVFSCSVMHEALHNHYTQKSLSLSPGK
Description: as §1, §2

[2] = target: T4, MICA on human tumor cells (A-375, A549, HCT-15, MDA-MB-231) (human, UniProt Q29983 24-383); experiment: flow cytometry on HCT-15 cells, Alexa-647 goat anti-human secondary, average fluorescence intensity
T4 construct: whole, on cells
T4 sequence (looked up): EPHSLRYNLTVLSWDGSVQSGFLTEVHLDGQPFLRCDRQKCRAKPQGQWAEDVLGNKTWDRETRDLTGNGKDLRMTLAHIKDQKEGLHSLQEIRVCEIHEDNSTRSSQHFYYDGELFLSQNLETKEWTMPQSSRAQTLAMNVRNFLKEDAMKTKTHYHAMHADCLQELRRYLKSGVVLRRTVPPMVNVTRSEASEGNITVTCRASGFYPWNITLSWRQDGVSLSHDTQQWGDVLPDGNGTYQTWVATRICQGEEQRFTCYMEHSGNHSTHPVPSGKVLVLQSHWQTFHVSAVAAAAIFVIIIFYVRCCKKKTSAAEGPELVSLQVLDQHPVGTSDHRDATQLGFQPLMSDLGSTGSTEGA
Description: (1) Tumor cells were diluted to a density of 2×10⁶/mL with PBS and then added into a 1.5 ml EP tube in a volume of 100 l/tube. 10 l/tube of goat serum was added into the EP tube; and blocking was conducted at 4° C. for 30 min. Antibody h5A1 (having a heavy chain sequence as set forth in SEQ ID NO: 11 and a light chain sequence as set forth in SEQ ID NO: 12), antibody h5A1002 (having a heavy chain sequence as set forth in SEQ ID NO: 13 and a light chain sequence as set forth in SEQ ID NO: 14), and control IgG1 (purchased from Biointron) were gradient-diluted (at a highest working concentration of 50 μg/ml, 10 gradients, diluted by 3 times for each gradient) and added. The tube was incubated at 4° C. for 30 min. 1 mL of PBS was added into the EP tube, and centrifugation was conducted 4° C. at a rate of 3,500 rpm for 5 min. The supernatant was removed. The EP tube was washed once with the PBS. The supernatant was removed after centrifugation. The cells were resuspended with PBS in a volume of 100 l/tube. An Alexa-647 labeled goat anti-human secondary antibody (purchased from Jackson lab) was added into the tube in a volume of 1 l/tube; and the plate was incubated in the dark at 4° C. for 30 min. The tube was washed twice with PBS, and the supernatant was removed after centrifugation. […]

MICA004α3-Fc = target: T5, MICA004α3-Fc (human); experiment: ELISA on coated MICA*004 α3-Fc (1 µg/ml), HRP anti-human Fab secondary, OD450
T5 construct: also called MICA*004-Fc; domain α3 of MICA-004 Fc fusion protein
T5 sequence (chain, as listed by the source limits assumed): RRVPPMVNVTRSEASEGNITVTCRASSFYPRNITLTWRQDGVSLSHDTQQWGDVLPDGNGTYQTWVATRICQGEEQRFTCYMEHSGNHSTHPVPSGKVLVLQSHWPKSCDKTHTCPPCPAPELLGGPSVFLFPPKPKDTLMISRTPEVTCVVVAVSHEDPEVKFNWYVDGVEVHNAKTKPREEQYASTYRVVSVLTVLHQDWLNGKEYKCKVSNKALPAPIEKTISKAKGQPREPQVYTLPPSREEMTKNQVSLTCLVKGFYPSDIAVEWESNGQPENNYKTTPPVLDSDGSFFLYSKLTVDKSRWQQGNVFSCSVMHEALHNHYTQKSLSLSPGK
Description: as §1, §2

MICB005α3-Fc = target: T6, MICB005α3-Fc; experiment: ELISA on coated MICB*005 α3-Fc (1 µg/ml), HRP anti-human Fab secondary, OD450
T6 construct: also called MICB*005-Fc; domain α3 of MICB-005 Fc fusion protein
T6 sequence (chain, as listed by the source limits assumed): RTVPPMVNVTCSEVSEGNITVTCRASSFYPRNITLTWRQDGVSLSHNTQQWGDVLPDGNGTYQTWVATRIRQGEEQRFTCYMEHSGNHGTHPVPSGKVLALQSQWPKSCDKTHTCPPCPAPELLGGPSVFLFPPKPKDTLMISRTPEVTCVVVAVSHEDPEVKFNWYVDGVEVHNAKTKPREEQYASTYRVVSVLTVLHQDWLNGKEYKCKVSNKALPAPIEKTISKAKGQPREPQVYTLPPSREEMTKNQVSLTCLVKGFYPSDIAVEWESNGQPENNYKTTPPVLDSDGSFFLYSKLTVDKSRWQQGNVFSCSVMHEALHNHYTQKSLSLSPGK
Description: as §1, §2

MICB001α3-Fc = target: T7, MICB001α3-Fc; experiment: ELISA on coated MICB*001 α3-Fc (1 µg/ml), HRP anti-human Fab secondary, OD450
T7 construct: also called MICB*001-Fc; domain α3 of MICB-001 Fc fusion protein
T7 sequence (chain, as listed by the source limits assumed): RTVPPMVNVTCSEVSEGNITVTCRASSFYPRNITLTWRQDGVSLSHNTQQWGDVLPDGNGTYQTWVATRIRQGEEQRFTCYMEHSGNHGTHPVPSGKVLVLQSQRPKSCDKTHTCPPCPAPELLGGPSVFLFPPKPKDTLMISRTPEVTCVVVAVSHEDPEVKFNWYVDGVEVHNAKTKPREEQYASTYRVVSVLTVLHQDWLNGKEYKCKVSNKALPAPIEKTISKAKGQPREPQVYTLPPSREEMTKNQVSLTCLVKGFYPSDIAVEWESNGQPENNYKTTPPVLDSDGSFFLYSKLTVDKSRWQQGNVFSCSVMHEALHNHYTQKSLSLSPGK
Description: as §1, §2

MICA005α3-Fc = target: T8, MICA005α3-Fc (human); experiment: ELISA on coated MICA*005 α3-Fc (1 µg/ml), HRP anti-human Fab secondary, OD450
T8 construct: also called MICA*005-Fc; domain α3 of MICA-005 Fc fusion protein
T8 sequence (chain, as listed by the source limits assumed): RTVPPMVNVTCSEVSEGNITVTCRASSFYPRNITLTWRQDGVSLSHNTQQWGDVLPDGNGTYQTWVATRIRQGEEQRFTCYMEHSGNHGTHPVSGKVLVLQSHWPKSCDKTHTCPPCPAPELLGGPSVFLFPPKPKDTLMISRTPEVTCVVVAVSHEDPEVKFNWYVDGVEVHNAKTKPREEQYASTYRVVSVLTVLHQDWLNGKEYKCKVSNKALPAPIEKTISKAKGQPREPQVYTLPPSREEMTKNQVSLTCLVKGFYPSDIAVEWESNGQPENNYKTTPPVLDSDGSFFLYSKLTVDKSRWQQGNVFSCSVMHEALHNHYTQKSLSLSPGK
Description: as §1, §2

B1: maternal humanized antibody h5A1 (antibody, human IgG1, kappa, V domains shown)
VH: QVQLQESGPGLVKPSETLSLTCTVSGFSLTTYGVHWIRQPPGKGLEWIGMIWTDGTTDYNAAFISRVTISVDTSKNQFSLKLSSVTAADTAVYYCARKGHGYYYAMDYWGQGTLVTVSS
VL: EIVLTQSPGTLSLSPGERATLSCTASSSVSSSYLHWYQQKPGQAPRLLIYSTSNLASGIPDRFSGSGSGTDFTLTISRLEPEDFAVYYCHQYHRSPFTFGQGTKLEIKR
notes: Human IgG1, kappa; The full chains are stated for the ELISA and flow cytometry; also called h5A1-hIgG1; maternal antibody h5A1
For B1, the Kd [1] was 215 nM, the koff [1] was 0.000641 s⁻¹ and the kon [1] was 2970 M⁻¹ s⁻¹. The binding result (MICA008α3-Fc) was “binds”, the “EC50 (read off the curve)” value (MICA002α3-Fc) was roughly 0.3 µg/mL and the “EC50 (read off the curve)” value [2] was roughly 3 µg/mL. For the same binder, the “EC50 (read off the curve)” value (MICA004α3-Fc) was roughly 0.07 µg/mL, the “EC50 (read off the curve)” value (MICB005α3-Fc) was roughly 0.05 µg/mL and the “EC50 (read off the curve)” value (MICB001α3-Fc) was roughly 0.07 µg/mL. For the same binder, the “EC50 (read off the curve)” value (MICA005α3-Fc) was roughly 0.4 µg/mL.
